Numbering of substitutions follows the chain as printed.
B1: PD-1 A-M15 (antibody, mouse IgG1, V domains shown)
VH: EVRLQQSGAELVKPGASVKLSCTASGFNIKDTYLHWLKERPEQGLEWIGRIDPAIGNTRYDPKFQVKATITADTSSNTAYLQLSSLTSEDSAVYYCARGFYGMDYWGQGTSVTVSS
VL: QIVLTQSPAIMSASPGEKVTMTCSASSSVSYMFWYQQKPGSSPRLWIYDTSNLVSGVPARFSGSRSGTSYSLTISSMEAEDAATYYCQQYSGYPYTFGGGTKLEIK
notes: Mouse IgG1 kappa, hybridoma supernatant; also called 11E10
B2: PD-1 A-M1 (antibody, mouse IgG1, V domains shown)
VH: B1 VH with R3Q, L34M, L37V, E39Q, G56D, R59K, V66G, S91T, R98S, G102T
VL: B1 VL with S30T, F33Y, Y35F, Y93H, Y95S, T96S, G99S
notes: Mouse IgG1 kappa, tested as hybridoma supernatant; also called 2C08
B3: PD-1 A-M3 (antibody, mouse IgG1, V domains shown)
VH: B1 VH
VL: B1 VL
notes: Mouse IgG1 kappa, hybridoma supernatant; also called 4G01
B4: PD-1 A-M23 (antibody, mouse IgG1, V domains shown)
VH: B1 VH
VL: B1 VL
notes: Mouse IgG1 kappa, hybridoma supernatant; also called 18A08
B5: PD-1 A-M11 (antibody, V domains shown)
VH: EVQLQQSGAEVVKPGASVKLSCTASGFNIKDTYMHWVKQRPEQGLEWIGRIDPAIGNPKYDPKFQGRATITADTSSNTAYLQLSSLTSEDTAVYYCASGFYAMDCWGQGTSVTVSS
VL: B1 VL with V29I, S30T, R65K, S75T, Y95S, G99S
notes: Mouse IgG1 kappa, hybridoma supernatant; The VL is therefore uncertain; also called 9B04
B6: PD-1 A-M10 (antibody, mouse IgG1, V domains shown)
VH: B1 VH
VL: B1 VL
notes: Mouse IgG1 kappa, hybridoma supernatant; also called 8H01
B7: caninized monoclonal antibody C1 (antibody, V domains shown)
VH: B5 VH with V11L, G56D, P58T, R67K, A102T, C105Y
VL: QIVLTQSPAIMSASPGEKVTMTCSASSSVTYMYWFQQKPGSSPRLWIYDTSNLVSGVPARFSGSRSGTSYSLTISSMEAEDAATYYCQQYSGHPSSFGSGTKLEIKR
notes: Variable domains as for M1; also called C1(35.38); 35.38
B8: caninized monoclonal antibody C3 (antibody, V domains shown)
VH: B1 VH
VL: B7 VL with T30S, Y33F, F35Y, H93Y, S95Y, S96T, S99G
notes: Variable domains as for M3; also called C3(36.39); 36.39
B9: caninized monoclonal antibody C11 (antibody, V domains shown)
VH: B5 VH
VL: B7 VL with V29I, Y33F, F35Y, R65K, S75T, H93Y, S96T
notes: Variable domains as for M11; also called C11(37.40); 37.40

These binders were tested against T1, canine PD-1 protein amino acids 25-168 with His tag (canine, UniProt A0A090BAM7 25-168) (assay: ELISA, PD-1 His 100 ng/mL, clone supernatant).
T1 construct: Expressed in Expi293F cells; used as immunogen and as antigen in ELISA and Octet; also called PD-1 His
T1 sequence (A0A090BAM7 entry or part of it limits assumed): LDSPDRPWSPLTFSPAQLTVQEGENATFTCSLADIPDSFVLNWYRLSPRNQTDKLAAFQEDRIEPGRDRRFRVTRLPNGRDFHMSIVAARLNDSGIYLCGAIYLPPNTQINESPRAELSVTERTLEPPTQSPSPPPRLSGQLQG

Binder | O.D. determined by ELISA
B1 | 2.34
B2 | 2.65
B3 | 2.87
B4 | 2.58
B5 | 2.66
B6 | 2.83

The binders below were run against T1, canine PD-1 protein amino acids 25-168 … (assay: kinetics, PD-1 His 1.1 nM).

Binder | Response (nm)
B7 | -0.031 nm
B8 | 0.002 nm
B9 | -0.003 nm

What follows are binders tested against T2, PD1 on the surface of T cells (canine PBMC stimulated with ConA) (canine, UniProt A0A090BAM7 25-288) (assay: flow cytometry on ConA-stimulated canine PBMC, stained with anti-CD3-FITC and the caninized antibody, detected with PE-labeled anti-canine IgG; quadrant plot FITC against PE; no unstained or isotype control shown).
T2 construct: also called canine PD-1
Procedure: (§1) The cells were stimulated by 0.5 μg/mL ConA for 3 days, and collected. PBMC was incubated with canine-anti-CD3-FITC and caninized monoclonal antibodies C1, C3 and C11 respectively. Then the cells were incubated again with PE-labeled canine-IgG antibody. […] Moreover, the results also indicate that the caninized monoclonal antibodies C1, C3 and C11 have potential blocking effect on the PD1/PD-L1 signaling pathway, and thus have protective effect on the function of T cells (see FIG. 14).

T2 sequence (A0A090BAM7 entry or part of it limits assumed): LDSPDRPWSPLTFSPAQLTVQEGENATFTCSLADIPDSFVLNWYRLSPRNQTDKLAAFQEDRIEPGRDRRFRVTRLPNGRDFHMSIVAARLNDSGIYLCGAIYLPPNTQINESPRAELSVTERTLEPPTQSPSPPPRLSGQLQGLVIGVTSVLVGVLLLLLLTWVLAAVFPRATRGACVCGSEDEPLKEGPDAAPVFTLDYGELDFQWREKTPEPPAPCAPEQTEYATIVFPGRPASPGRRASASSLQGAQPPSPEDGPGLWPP

Binder | % of cells in quadrant Q2 (Comp-FITC-A positive, Comp-PE-A positive)
B7 | 57.9%
B8 | 53.1%
B9 | 62.6%

What follows are binders tested against T2, PD1 on the surface of T cells (canine …) (assay: flow cytometry, ConA-stimulated canine PBMC, CD3-FITC and PE-labeled anti-canine IgG).
Procedure: as §1

Binder | PD1 positive cells in T cells
B7 | 94.6%
B8 | 96.2%
B9 | 96.7%

These binders were tested against T1, canine PD-1 protein amino acids 25-168 … (assay: kinetics, PD-1 His 333.3 nM).

Binder | Response (nm) | Kd | koff | kon
B7 | -0.004 nm |  |  | 
B8 | 0.01 nm | < 0.001 nM | < 1e-07 s⁻¹ | 1760 M⁻¹ s⁻¹
B9 | 0.012 nm | < 0.001 nM | < 1e-07 s⁻¹ | 947 M⁻¹ s⁻¹

The binders below were run against T1, canine PD-1 protein amino acids 25-168 … (assay: kinetics, PD-1 His 37.3 nM).

Binder | Kd | Response (nm) | koff | kon
B7 | 2.65 nM | 0.008 nm | 0.00953 s⁻¹ | 3.6e+06 M⁻¹ s⁻¹
B8 | < 0.001 nM | 0.017 nm | < 1e-07 s⁻¹ | 40500 M⁻¹ s⁻¹
B9 | < 0.001 nM | 0.015 nm | < 1e-07 s⁻¹ | 67600 M⁻¹ s⁻¹

Each binder was assayed against T1, canine PD-1 protein amino acids 25-168 … (assay: kinetics, global fit over PD-1 His 1.1-1000 nM).

Binder | Kd | koff | kon
B7 | 1.59 nM | 0.401 s⁻¹ | 2.51e+08 M⁻¹ s⁻¹
B8 | < 0.001 nM | < 1e-07 s⁻¹ | 626 M⁻¹ s⁻¹
B9 | < 0.001 nM | < 1e-07 s⁻¹ | 1190 M⁻¹ s⁻¹

These binders were tested against T1, canine PD-1 protein amino acids 25-168 … (assay: Octet BLI, supernatant captured by anti-mouse IgG Fc, PD-1 His 20 nM).
Procedure: Octet BMIA was used to determine the affinity of the supernatant of the PD-1A clone culture to PD-1 His. Anti-mouse IgG Fc was added to each clone supernatant to capture competence factors.

Binder | Kd | Response (nm) | koff | kon
B1 | 10.4 nM | 0.068 nm | 0.000608 s⁻¹ | 58500 M⁻¹ s⁻¹
B2 | 144 nM | 0.049 nm | 0.00044 s⁻¹ | 3060 M⁻¹ s⁻¹
B3 | < 0.001 nM | 0.041 nm | < 1e-07 s⁻¹ | 174000 M⁻¹ s⁻¹
B4 | 0.537 nM | 0.061 nm | 0.000159 s⁻¹ | 296000 M⁻¹ s⁻¹
B5 | 0.903 nM | 0.049 nm | 0.000312 s⁻¹ | 346000 M⁻¹ s⁻¹
B6 | 0.0306 nM | 0.044 nm | 6.96e-06 s⁻¹ | 227000 M⁻¹ s⁻¹

What follows are binders tested against T1, canine PD-1 protein amino acids 25-168 … (assay: kinetics, PD-1 His 1000.0 nM).

Binder | Response (nm) | Kd | koff | kon
B7 | 0.001 nm |  |  | 
B8 | 0.007 nm | < 0.001 nM | < 1e-07 s⁻¹ | 330 M⁻¹ s⁻¹
B9 | 0.009 nm | < 0.001 nM | < 1e-07 s⁻¹ | 1470 M⁻¹ s⁻¹

These binders were tested against T1, canine PD-1 protein amino acids 25-168 … (assay: kinetics, PD-1 His 12.4 nM).

Binder | Kd | Response (nm) | koff | kon
B7 | 2.46 nM | 0.001 nm | 0.0198 s⁻¹ | 8.05e+06 M⁻¹ s⁻¹
B8 |  | 0.005 nm |  | 
B9 | < 0.001 nM | 0.008 nm | < 1e-07 s⁻¹ | 50100 M⁻¹ s⁻¹

What follows are binders tested against T1, canine PD-1 protein amino acids 25-168 … (assay: kinetics, PD-1 His 4.0 nM).

Binder | Kd | Response (nm) | koff | kon
B7 | 18.4 nM | 0.005 nm | 1.27 s⁻¹ | 6.93e+07 M⁻¹ s⁻¹
B8 |  | 0.009 nm |  | 
B9 |  | 0.004 nm |  | 

These binders were tested against T3, PD1-Fc (canine, UniProt A0A090BAM7 25-168) (assay: Octet BLI competition, competitor PD-L1 Fc on AHC sensor, PD1 Fc 50 nM preincubated with supernatant 1/2).
T3 construct: also called Only Ag (PD1 Fc)
Procedure: (§2) D-L1 Fc ([…]) was loaded on an AHC sensor for cross-linking assay. Epitope analysis was used to determine the binding of antibodies loaded on the sensor to recombinant antibodies preincubated with PD1-Fc. The binding (response) degrees observed were compared to that of antigen only under the same conditions. If the total response of an antibody was higher than that of antigen only, the antibody would be matched. If the response of an antibody was lower than 80% of that of antigen, the antibody would be blocked with each other.

Binder | Response (nm)
B1 | -0.005 nm
B2 | -0.009 nm
B3 | -0.002 nm
B4 | 0 nm
B5 | -0.008 nm
B6 | 0.006 nm

The binders below were run against T1, canine PD-1 protein amino acids 25-168 … (assay: kinetics, global fit over the PD-1 His series 1.1-1000.0 nM).

Binder | Kd | koff | kon
B7 | 1.59 nM | 0.401 s⁻¹ | 2.51e+08 M⁻¹ s⁻¹
B8 | < 0.001 nM | < 1e-07 s⁻¹ | 626 M⁻¹ s⁻¹
B9 | < 0.001 nM | < 1e-07 s⁻¹ | 1190 M⁻¹ s⁻¹

Each binder was assayed against T3, PD1-Fc (assay: Octet BLI competition, competitor PD-L1 Fc on AHC sensor, against PD1 Fc only).
Procedure: as §2

Binder | % response
B1 | -8.21%
B2 | -21.9%
B3 | -5%
B4 | -0.47%
B5 | -16%
B6 | 12%

Each binder was assayed against T1, canine PD-1 protein amino acids 25-168 … (assay: kinetics, PD-1 His 111.3 nM).

Binder | Kd | Response (nm) | koff | kon
B7 | 2.06 nM | 0.016 nm | 0.000886 s⁻¹ | 430000 M⁻¹ s⁻¹
B8 | < 0.001 nM | 0.026 nm | < 1e-07 s⁻¹ | 14700 M⁻¹ s⁻¹
B9 | < 0.001 nM | 0.025 nm | < 1e-07 s⁻¹ | 23800 M⁻¹ s⁻¹
